For one substance, Kd results are on record in patent US20060193849A1.

The assay concerns the target MUC-1 gene product, the membrane mucin glycoprotein (polymorphic epithelial mucin or PEM) (human) (UniProt P15941). In words: flow cytometry equilibrium binding on MCF7 cells. The settings on record: scFv.

MUC-1 gene product, the membrane mucin glycoprotein (polymorphic epithelial mucin or PEM) (human), sequence (P15941 24-1255): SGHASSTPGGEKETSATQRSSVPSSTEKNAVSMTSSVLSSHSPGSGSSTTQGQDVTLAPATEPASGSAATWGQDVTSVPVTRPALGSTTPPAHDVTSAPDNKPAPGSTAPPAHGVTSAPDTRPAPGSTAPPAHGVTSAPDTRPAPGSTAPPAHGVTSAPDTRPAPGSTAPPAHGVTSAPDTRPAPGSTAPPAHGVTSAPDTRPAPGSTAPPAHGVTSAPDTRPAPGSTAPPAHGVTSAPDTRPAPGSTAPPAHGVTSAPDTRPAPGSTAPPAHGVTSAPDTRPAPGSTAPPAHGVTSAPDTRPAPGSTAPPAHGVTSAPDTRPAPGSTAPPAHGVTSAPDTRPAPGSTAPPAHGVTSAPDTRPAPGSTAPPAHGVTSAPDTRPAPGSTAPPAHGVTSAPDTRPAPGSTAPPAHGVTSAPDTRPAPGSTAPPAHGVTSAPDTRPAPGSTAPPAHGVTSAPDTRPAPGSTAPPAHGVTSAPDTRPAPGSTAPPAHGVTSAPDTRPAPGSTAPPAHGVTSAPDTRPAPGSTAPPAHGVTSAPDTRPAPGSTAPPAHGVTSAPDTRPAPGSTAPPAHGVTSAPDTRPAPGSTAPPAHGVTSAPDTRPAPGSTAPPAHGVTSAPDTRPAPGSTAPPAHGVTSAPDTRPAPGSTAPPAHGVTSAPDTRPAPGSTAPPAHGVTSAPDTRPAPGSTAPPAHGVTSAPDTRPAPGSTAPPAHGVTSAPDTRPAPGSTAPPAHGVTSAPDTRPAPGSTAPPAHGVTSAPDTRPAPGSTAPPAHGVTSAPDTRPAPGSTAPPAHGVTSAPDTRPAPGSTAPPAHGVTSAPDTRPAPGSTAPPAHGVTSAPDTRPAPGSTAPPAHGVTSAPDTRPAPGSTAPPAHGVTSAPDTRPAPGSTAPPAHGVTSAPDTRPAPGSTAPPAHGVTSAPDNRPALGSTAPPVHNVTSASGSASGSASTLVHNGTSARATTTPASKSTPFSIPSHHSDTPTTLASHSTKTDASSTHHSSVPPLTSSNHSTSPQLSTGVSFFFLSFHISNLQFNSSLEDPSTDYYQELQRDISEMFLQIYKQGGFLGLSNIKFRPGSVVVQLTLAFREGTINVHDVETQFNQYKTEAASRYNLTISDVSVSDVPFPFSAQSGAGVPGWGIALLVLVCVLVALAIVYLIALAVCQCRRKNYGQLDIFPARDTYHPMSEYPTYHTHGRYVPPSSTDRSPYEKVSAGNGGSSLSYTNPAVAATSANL

The substance huHMFG1 wild-type scFv 22W yielded a Kd of 0.199 µM.
